# Substitutions are numbered along the chain they refer to.
# T1: Cas12Max (xCas12i-N243R, v1.1) (N243R)
# T1 chain: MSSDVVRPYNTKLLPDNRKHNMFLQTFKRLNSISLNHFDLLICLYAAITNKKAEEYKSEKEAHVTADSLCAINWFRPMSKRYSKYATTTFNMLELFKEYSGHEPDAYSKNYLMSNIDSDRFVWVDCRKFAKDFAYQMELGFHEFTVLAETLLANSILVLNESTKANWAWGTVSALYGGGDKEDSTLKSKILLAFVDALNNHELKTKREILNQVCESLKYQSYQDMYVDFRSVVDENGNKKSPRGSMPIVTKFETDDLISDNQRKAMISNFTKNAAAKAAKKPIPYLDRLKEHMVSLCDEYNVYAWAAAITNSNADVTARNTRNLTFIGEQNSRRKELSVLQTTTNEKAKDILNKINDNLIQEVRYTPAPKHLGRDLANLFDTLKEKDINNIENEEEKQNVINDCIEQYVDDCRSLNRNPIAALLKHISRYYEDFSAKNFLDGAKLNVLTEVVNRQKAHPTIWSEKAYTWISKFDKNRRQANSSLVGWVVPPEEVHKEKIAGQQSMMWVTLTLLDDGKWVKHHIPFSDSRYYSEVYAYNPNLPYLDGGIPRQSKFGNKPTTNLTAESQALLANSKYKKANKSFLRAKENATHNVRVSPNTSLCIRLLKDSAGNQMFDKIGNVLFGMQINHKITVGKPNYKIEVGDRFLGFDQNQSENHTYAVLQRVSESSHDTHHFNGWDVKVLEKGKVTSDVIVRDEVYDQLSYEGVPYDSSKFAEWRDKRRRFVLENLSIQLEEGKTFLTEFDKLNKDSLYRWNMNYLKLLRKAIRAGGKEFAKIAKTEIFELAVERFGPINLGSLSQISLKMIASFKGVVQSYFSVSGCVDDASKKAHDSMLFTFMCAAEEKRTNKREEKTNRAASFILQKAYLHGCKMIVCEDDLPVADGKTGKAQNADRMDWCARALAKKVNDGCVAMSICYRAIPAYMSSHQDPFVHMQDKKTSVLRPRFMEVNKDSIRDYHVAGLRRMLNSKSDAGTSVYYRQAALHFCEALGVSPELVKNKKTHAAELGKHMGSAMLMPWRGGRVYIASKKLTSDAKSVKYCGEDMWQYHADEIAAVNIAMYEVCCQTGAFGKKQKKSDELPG
# T2: xCas12i v5.3 (N243R,D892R)
# T2 chain: T1 chain with D892R
# B1: TTR.2 crRNA ; TTR ON.1 (ssRNA ; dsDNA)
# RNA: AUGACUCAGAAAUGUGUCCCCAGUUGACACUAGAAGGGAUAUACAAAGUGGA
# DNA 1: TTTGTAGAAGGGATATACAAAGTGGA
# DNA 2: TCCACTTTGTATATCCCTTCTACAAA
# Columns and labels:
# [1] = molecular target: T1, Cas12Max (xCas12i-N243R, v1.1); assay: cell_activity; PAM TTTG; on-target; settings: tags: NLS
# [2] = molecular target: T2, xCas12i v5.3; assay: cell_activity; PAM TTTG; on-target; settings: tags: NLS
binder,measurement,setting,value
B1,activity,[1],73.8%
same,activity,[2],75.8%

# Reference: patent US20250283063, “NOVEL CRISPR-CAS12I SYSTEMS AND USES THEREOF” (HUIDAGENE THERAPEUTICS (SINGAPORE) PTE. LTD., published 2025)
